We go through three molecules from patent US20240383982A1 (Genmab, published 2024).

The target in test [1] is T1, pig (Sus scrofa) B7H4, full length, on HEK-293F cells (pig, UniProt Q7Z7D3 26-282 (human entry)).
T1 construct: Uniprot F1SAY4; also called pig B7H4
T1 chain: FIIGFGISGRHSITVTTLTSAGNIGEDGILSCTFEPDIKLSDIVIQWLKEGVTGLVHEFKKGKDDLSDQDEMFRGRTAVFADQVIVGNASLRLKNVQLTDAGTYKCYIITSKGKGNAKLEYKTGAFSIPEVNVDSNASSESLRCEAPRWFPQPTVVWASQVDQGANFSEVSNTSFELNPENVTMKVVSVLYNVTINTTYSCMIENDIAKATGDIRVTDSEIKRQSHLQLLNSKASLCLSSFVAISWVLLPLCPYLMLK
Nature of the test: flow cytometry, HEK-293F cells transfected with pig B7H4 [panel Pig B7H4]. As to the method:
(§1) Cells (3×10⁴ cells/well) were incubated in polystyrene 96-well round-bottom plates (Greiner bio-one, cat. no. 650180) with serial dilutions of antibodies (ranging from 0.000458 to 30 μg/mL in 4-fold dilution steps) in 100 μL PBS/0.1% BSA/0.02% azide (staining buffer) at 4° C. for 30 min. Experiments were performed in technical duplicate. After washing twice in staining buffer, cells were incubated in 50 μL secondary antibody at 4° C. for 30 min. As a secondary antibody, R-Phycoerythrin (PE)-conjugated goat-anti-human IgG F(ab′)₂ (1:500 in FACS buffer; Jackson ImmunoResearch Laboratories, Inc., West Grove, PA, cat. no. 109-116-098), was used. Cells were washed twice in staining buffer, re-suspended in 30 μL FACS buffer containing Topro-3 (1:10,000 dilution) and analyzed on an iQue Screener (Intellicyt Corporation, USA). Binding curves were analyzed using non-linear regression (sigmoidal dose-response with variable slope) using GraphPad Prism V7.02 software (GraphPad Software, San Diego, CA, USA).
On the technique in general: A flow cytometer gives signals particle by particle.

Test [2] addresses T2, mouse B7H4 ECD-His (R&D Systems, cat. no. 2154-B7-050) (mouse, UniProt Q7TSP5 29-256).
T2 construct: Bought ECD-His protein (26.6 kDa); also called mouse B7H4 extracellular domain
T2 sequence: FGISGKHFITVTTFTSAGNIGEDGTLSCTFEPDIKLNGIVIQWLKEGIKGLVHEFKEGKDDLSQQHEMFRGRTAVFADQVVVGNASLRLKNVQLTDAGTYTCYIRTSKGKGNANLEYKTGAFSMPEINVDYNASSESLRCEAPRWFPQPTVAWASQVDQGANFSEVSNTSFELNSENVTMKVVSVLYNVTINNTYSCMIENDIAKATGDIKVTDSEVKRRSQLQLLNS
Nature of the test: BLI (Octet HTX); antibody on anti-human IgG Fc capture sensor, mouse B7H4 ECD-His in solution; 2nd experiment. As to the method:
Target binding affinity of B7H4 antibodies was determined by label-free biolayer interferometry (BLI) on an Octet HTX instrument (FortéBio). Experiments were carried out while shaking at 1,000 RPM at 30° C. […] Anti-Human IgG Fc Capture (AHC) biosensors (FortéBio, cat. no. 18-5060) were pre-conditioned by exposure to 10 mM glycine (Sigma-Aldrich, cat. no. 15527) buffer pH 1.7 for 5 s, followed by neutralization in Sample Diluent (FortéBio, cat. no. 18-1048) for 5 s; both steps were repeated 2 times. Next, AHC sensors were loaded with antibody (1 μg/mL in Sample diluent) for 600 s. […] The theoretical molecular mass of human B7H4 and mouse B7H4 (as ECD-His tagged molecules) based on their amino acid sequences (26.8 kDa and 26.6 kDa respectively) were used for calculations. For each antibody a reference sensor was used, which was incubated with Sample Diluent instead of antigen. AHC sensors were regenerated by exposure to 10 mM glycine buffer pH 1.7 for 5 s, followed by neutralization in Sample Diluent for 5 s; both steps were repeated twice. Subsequently sensors were loaded again with antibody for the next cycle of kinetics measurements.
Data were acquired using Data Acquisition Software v9.0.0.49d (FortéBio) and analyzed with Data Analysis Software v9.0.0.12 (FortéBio). Data traces were corrected per antibody by subtraction of the reference sensor. The Y-axis was aligned to the last 10 s of the baseline, Interstep Correction alignment to dissociation and Savitzky-Golay filtering were applied. Data traces with a response<0.05 nm were excluded from analysis. The data was fitted with the 1:1 Global Full fit model using a window of interest for the association and dissociation times set at 300 s and 200 s respectively.

For test [3], the target named is T3, mouse (Mus musculus) B7H4, full length, on HEK-293F cells (mouse, UniProt Q7TSP5 25-257).
T3 construct: Uniprot Q7TSP5; also called mouse B7H4
T3 sequence: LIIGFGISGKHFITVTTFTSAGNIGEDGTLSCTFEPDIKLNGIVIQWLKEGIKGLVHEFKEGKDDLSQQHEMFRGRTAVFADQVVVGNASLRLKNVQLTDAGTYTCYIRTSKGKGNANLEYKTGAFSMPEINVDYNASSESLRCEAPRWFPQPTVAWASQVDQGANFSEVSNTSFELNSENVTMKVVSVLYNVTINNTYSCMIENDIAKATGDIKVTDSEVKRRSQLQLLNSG
Nature of the test: flow cytometry, HEK-293F cells transfected with mouse B7H4 [panel Mouse B7H4]. As to the method: as §1

Test [4] has as its target T4, human B7H4, full length, on cells (human, UniProt Q7Z7D3 25-282).
T4 construct: Uniprot Q7Z7D3; Used for transfected HEK cells and for the B7H4-expressing human tumor cell lines (endogenous B7H4); also called VTCN1
T4 sequence: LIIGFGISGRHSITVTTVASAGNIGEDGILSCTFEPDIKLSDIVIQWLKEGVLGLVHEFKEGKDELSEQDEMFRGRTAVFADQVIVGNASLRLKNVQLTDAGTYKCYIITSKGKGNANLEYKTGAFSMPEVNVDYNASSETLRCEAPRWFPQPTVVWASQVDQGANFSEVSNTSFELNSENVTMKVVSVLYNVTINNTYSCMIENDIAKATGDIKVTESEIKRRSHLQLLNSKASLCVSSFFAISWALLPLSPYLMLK
Put plainly: flow cytometry on NIH-OVCAR-3 tumor cells [panel NIH-Ovcar-3 cells]. As to the method:
as §1
Binding was analyzed by flow cytometry as described above.

As a reminder, the Kd is the constant that tells how readily two partners part at equilibrium. What is called koff is the first-order rate constant of dissociation. Lower therefore signals a long-lived complex. Broadly, the kon is the rate constant with which the complex forms. Low values mean slow association, high ones fast association. The term EC50 (read off the curve) denotes the concentration that produces a half-maximal response. High values mean weaker potency, low ones greater potency.

B1: IgG1-B7H4-C5-FEAR (antibody, V domains shown)
VH: QLQLQESGPGLVKPSETLSLTCTVSGGSIKSGSYYWGWIRQPPGKGLEWIGNIYYSGSTYYNPSLRSRVTISVDTSKNQFSLKLSSVTAADTAVYYCAREGSYPNQFDPWGQGTLVTVSS
VL: EIVMTQSPATLSVSPGERATLSCRASQSVSSNLAWYQQKPGQAPRLLIYGASTRATGIPARFSGSGSGTEFTLTISSLQSEDFAVYYCQQYHSFPFTFGGGTKVEIKR
notes: Full length IgG1 FEAR, kappa; variable domains from US20190085080A1
For the molecule B1, the binding result in test [1] was “binds”. In test [2], this molecule registered a Kd of 14 nM, a koff of 0.0024 s⁻¹ and a kon of 170000 M⁻¹ s⁻¹.

B2: IgG1-B7H4-C1-N52S-FEAR (antibody, V domains shown)
VH: QVQLQQWGAGLLKPSETLSLTCAVYGGSFSGYYWSWIRQPPGKGLEWIGEISHSGSTNYNPSLKSRVTISIDTSKNQFSLKLTSVTAADTAVFYCARGLFNWNFDSWGQGTLVTVSS
VL: DIQMTQSPSSLSASVGDRVTITCRASQGIRNDLGWYQQKPGKAPKRLIYGASSLQSGVPSRFSGSGSGTEFTLTISSLQPEDFATYYCLQHNSYPRTFGQGTTVEIKR
notes: Full length human IgG1 with L234F, L235E, D265A, K409R (FEAR) heavy chain constant region and kappa light chain; bivalent, monospecific; also called IgG1-B7H4-C1-052S-FEAR
With B2, in test [3], the “EC50 (read off the curve)” value was around 0.3 µg/mL.

B3: bsIgG1-huCD3-H101G-FEALxB7H4-C1-N52S-FEAR (bispecific antibody)
heavy 1: not shown
light 1: not shown
heavy 2: QVQLQQWGAGLLKPSETLSLTCAVYGGSFSGYYWSWIRQPPGKGLEWIGEISHSGSTNYNPSLKSRVTISIDTSKNQFSLKLTSVTAADTAVFYCARGLFNWNFDSWGQGTLVTVSSASTKGPSVFPLAPSSKSTSGGTAALGCLVKDYFPEPVTVSWNSGALTSGVHTFPAVLQSSGLYSLSSVVTVPSSSLGTQTYICNVNHKPSNTKVDKRVEPKSCDKTHTCPPCPAPEFEGGPSVFLFPPKPKDTLMISRTPEVTCVVVAVSHEDPEVKFNWYVDGVEVHNAKTKPREEQYNSTYRVVSVLTVLHQDWLNGKEYKCKVSNKALPAPIEKTISKAKGQPREPQVYTLPPSREEMTKNQVSLTCLVKGFYPSDIAVEWESNGQPENNYKTTPPVLDSDGSFFLYSRLTVDKSRWQQGNVFSCSVMHEALHNHYTQKSLSLSPGK
light 2: DIQMTQSPSSLSASVGDRVTITCRASQGIRNDLGWYQQKPGKAPKRLIYGASSLQSGVPSRFSGSGSGTEFTLTISSLQPEDFATYYCLQHNSYPRTFGQGTTVEIKRTVAAPSVFIFPPSDEQLKSGTASVVCLLNNFYPREAKVQWKVDNALQSGNSQESVTEQDSKDSTYSLSSTLTLSKADYEKHKVYACEVTHQGLSSPVTKSFNRGEC
notes: also called bslgG1-huCD3-H101G-FEALxB7H4-C1-N52S-FEAR; BslgG1-huCD3-H101G-FEALxB7H4-C1-N52S-FEAR
With B3, the “EC50 (read off the curve)” value in test [4] was around 2 µg/mL.
